Source: PMC9371724 (2022)

T1: hemagglutinin (HA) of pandemic 2009 H1N1 (pHA, HA69) peptide on HLA-DQA1*01:02 / HLA-DQB1*06:02 (human)
T1 peptide: AMERNAGSGIIISDT

T2: hemagglutinin (HA) of pandemic 2009 H1N1 (pHA, HA69) peptide on HLA-DQA1*01:02 / HLA-DQB1*06:02 (human)
T2 peptide: AMERNAGSGIIISDT

T3: HA69 peptide on HLA DQB1*06:02/DQA1*01:02 (DQ0602) (human)
T3 peptide: AMERNAGSGIIISDT

B1: TCR275 (TCR)
alpha TRAV13-1 TRAJ43 CDR3: CAANNNDMRF
beta TRBV4-2 TRBJ1-2 CDR3: CASSQETQGRNYGYTF
B2: TCR43 (TCR)
alpha TRAV13-1 TRAJ43 CDR3: CAASDNDMRF
beta TRBV4-2 TRBJ1-2 CDR3: CASSQETQGRNYGYTF
B3: TCR CAVSPSDSWGKLQF / CASSYPGLSQETQYF (TCR)
alpha TRAV8-2 TRAJ24 CDR3: CAVSPSDSWGKLQF
beta TRBV5-5 TRBJ2-5 CDR3: CASSYPGLSQETQYF
B4: TCR CIVRVLTNQGGKLIF / CASSFQGLSTDTQYF (TCR)
alpha TRAV26-1 TRAJ23 CDR3: CIVRVLTNQGGKLIF
beta TRBV12-3 TRBJ2-3 CDR3: CASSFQGLSTDTQYF
B5: TCR CIVRANTGNQFYF / CASSPDGTGVGNTIYF (TCR)
alpha TRAV26-1 TRAJ49 CDR3: CIVRANTGNQFYF
beta TRBV4-2 TRBJ1-3 CDR3: CASSPDGTGVGNTIYF
B6: TCR CAVSDNPRVQGAQKLVF / CSAAGTGGAGTEAFF (TCR)
alpha TRAV8-6 TRAJ54 CDR3: CAVSDNPRVQGAQKLVF
beta TRBV29-1 TRBJ1-1 CDR3: CSAAGTGGAGTEAFF
B7: TCR CAGSPSQGGSEKLVF / CSARPLGTSGRDEQFF (TCR)
alpha TRAV35 TRAJ57 CDR3: CAGSPSQGGSEKLVF
beta TRBV20-1 TRBJ2-1 CDR3: CSARPLGTSGRDEQFF
B8: TCR CAMRGQDSGYSTLTF / CASSIVRGLYSNQPQHF (TCR)
alpha TRAV14/DV4 TRAJ11 CDR3: CAMRGQDSGYSTLTF
beta TRBV19 TRBJ1-5 CDR3: CASSIVRGLYSNQPQHF
B9: TCR CALSPDSWGKLQF / CASSTRAPTRTGEKLFF (TCR)
alpha TRAV6 TRAJ24 CDR3: CALSPDSWGKLQF
beta TRBV7-9 TRBJ1-4 CDR3: CASSTRAPTRTGEKLFF
B10: TCR CAARQMDSSYKLIF / CASSVASSSYNEQFF (TCR)
alpha TRAV23/DV6 TRAJ12 CDR3: CAARQMDSSYKLIF
beta TRBV4-2 TRBJ2-1 CDR3: CASSVASSSYNEQFF
B11: TCR CAVSPGNNQGGKLIF / CASSTQGAGEAFF (TCR)
alpha TRAV8-2 TRAJ23 CDR3: CAVSPGNNQGGKLIF
beta TRBV19 TRBJ1-1 CDR3: CASSTQGAGEAFF
B12: TCR CIVRVVSNQGGKLIF / CASSPQGFDYGYTF (TCR)
alpha TRAV26-1 TRAJ23 CDR3: CIVRVVSNQGGKLIF
beta TRBV19 TRBJ1-2 CDR3: CASSPQGFDYGYTF
B13: TCR CVVNGEAPGNQFYF / CASSVASSSYNEQFF (TCR)
alpha TRAV12-1 TRAJ49 CDR3: CVVNGEAPGNQFYF
beta TRBV4-2 TRBJ2-1 CDR3: CASSVASSSYNEQFF
B14: TCR CIVRVGTNQGGKLIF / CASSQDRAGTNTEAFF (TCR)
alpha TRAV26-1 TRAJ23 CDR3: CIVRVGTNQGGKLIF
beta TRBV4-2 TRBJ1-1 CDR3: CASSQDRAGTNTEAFF
B15: TCR CATDTENNARLMF / CSAGGAGPKMQYF (TCR)
alpha TRAV17 TRAJ31 CDR3: CATDTENNARLMF
beta TRBV20-1 TRBJ2-7 CDR3: CSAGGAGPKMQYF
B16: TCR CAVSDGGTSYGKLTF / CASSQGNTGHSPLHF (TCR)
alpha TRAV8-6 TRAJ52 CDR3: CAVSDGGTSYGKLTF
beta TRBV4-3 TRBJ1-6 CDR3: CASSQGNTGHSPLHF
B17: TCR CATGSYNTDKLIF / CASSPDGTGVGNTIYF (TCR)
alpha TRAV17 TRAJ34 CDR3: CATGSYNTDKLIF
beta TRBV4-2 TRBJ1-3 CDR3: CASSPDGTGVGNTIYF
B18: TCR CIVRVGTNQAGTALIF / CASREQGLDYGYTF (TCR)
alpha TRAV26-1 TRAJ15 CDR3: CIVRVGTNQAGTALIF
beta TRBV19 TRBJ1-2 CDR3: CASREQGLDYGYTF
B19: TCR CALSGDNAGNNRKLIW / CASNSRLAGGHVAYNEQFF (TCR)
alpha TRAV19 TRAJ38 CDR3: CALSGDNAGNNRKLIW
beta TRBV12-3 TRBJ2-1 CDR3: CASNSRLAGGHVAYNEQFF
B20: TCR CIVRVATNQAGTALIF / CASSTQGAFAEAFF (TCR)
alpha TRAV26-1 TRAJ15 CDR3: CIVRVATNQAGTALIF
beta TRBV19 TRBJ1-1 CDR3: CASSTQGAFAEAFF
B21: TCR CLVGDMEYGNKLVF / CASSQAPPSGNEQFF (TCR)
alpha TRAV4 TRAJ47 CDR3: CLVGDMEYGNKLVF
beta TRBV4-2 TRBJ2-1 CDR3: CASSQAPPSGNEQFF
B22: TCR CIVRVATNQGGKLIF / CASSPQGGLAEQYF (TCR)
alpha TRAV26-1 TRAJ23 CDR3: CIVRVATNQGGKLIF
beta TRBV19 TRBJ2-7 CDR3: CASSPQGGLAEQYF
B23: TCR CVVSEPGTYKYIF / CASSPDGTGVGNTIYF (TCR)
alpha TRAV8-2 TRAJ40 CDR3: CVVSEPGTYKYIF
beta TRBV4-2 TRBJ1-3 CDR3: CASSPDGTGVGNTIYF
B24: TCR CAVSGGNAGNMLTF / CATQKGDRGQSWGYTF (TCR)
alpha TRAV2 TRAJ39 CDR3: CAVSGGNAGNMLTF
beta TRBV6-1 TRBJ1-2 CDR3: CATQKGDRGQSWGYTF
B25: TCR285 (TCR)
alpha TRAV13-1 TRAJ49 CDR3: CAATPGRTGNQFYF
beta TRBV4-2 TRBJ2-5 CDR3: CASSQGQGDETQYF
B26: TCR CAASRGTSYDKVIF / CSVDRYYNEQFF (TCR)
alpha TRAV13-1 TRAJ50 CDR3: CAASRGTSYDKVIF
beta TRBV29-1 TRBJ2-1 CDR3: CSVDRYYNEQFF
B27: TCR CIVRSQGGSYIPTF / CATSRDTMTSIGTDTQYF (TCR)
alpha TRAV26-1 TRAJ6 CDR3: CIVRSQGGSYIPTF
beta TRBV15 TRBJ2-3 CDR3: CATSRDTMTSIGTDTQYF
B28: TCR CAASRGTSYDKVIF / CSTQRLYNEQFF (TCR)
alpha TRAV13-1 TRAJ50 CDR3: CAASRGTSYDKVIF
beta TRBV29-1 TRBJ2-1 CDR3: CSTQRLYNEQFF
B29: TCR CAVEETSGSRLTF / CASSQPDTRADTQYF (TCR)
alpha TRAV39 TRAJ58 CDR3: CAVEETSGSRLTF
beta TRBV4-2 TRBJ2-3 CDR3: CASSQPDTRADTQYF
B30: TCR CALTMKTSYDKVIF / CASSIGTSGPDTQYF (TCR)
alpha TRAV9-2 TRAJ50 CDR3: CALTMKTSYDKVIF
beta TRBV19 TRBJ2-3 CDR3: CASSIGTSGPDTQYF
B31: TCR CAAADTGNQFYF / CASSSHGQGNQPQHF (TCR)
alpha TRAV13-1 TRAJ49 CDR3: CAAADTGNQFYF
beta TRBV7-8 TRBJ1-5 CDR3: CASSSHGQGNQPQHF
B32: TCR CAGRPTSGGSNYKLTF / CASSGGQAYYGYTF (TCR)
alpha TRAV35 TRAJ53 CDR3: CAGRPTSGGSNYKLTF
beta TRBV19 TRBJ1-2 CDR3: CASSGGQAYYGYTF
B33: TCR CAGKENSGGSNYKLTF / CASRVQGARAEAFF (TCR)
alpha TRAV25 TRAJ53 CDR3: CAGKENSGGSNYKLTF
beta TRBV19 TRBJ1-1 CDR3: CASRVQGARAEAFF
B34: TCR108 (TCR)
alpha TRAV8-3 TRAJ24 CDR3: CAVGFTDSWGKLQF
beta TRBV19 TRBJ2-1 CDR3: CASSIDPSGNHYNEQFF
B35: TCR CATDAELGNKLVF / CASSQDRGRGTDTQYF (TCR)
alpha TRAV17 TRAJ47 CDR3: CATDAELGNKLVF
beta TRBV4-2 TRBJ2-3 CDR3: CASSQDRGRGTDTQYF
B36: TCR CAVSERGAQKLVF / CSAPSGGGRASGANVLTF (TCR)
alpha TRAV8-6 TRAJ54 CDR3: CAVSERGAQKLVF
beta TRBV20-1 TRBJ2-6 CDR3: CSAPSGGGRASGANVLTF
B37: TCR CAMREGHIQGAQKLVF / CASSSGNLNTEAFF (TCR)
alpha TRAV14/DV4 TRAJ54 CDR3: CAMREGHIQGAQKLVF
beta TRBV19 TRBJ1-1 CDR3: CASSSGNLNTEAFF
B38: TCR CAVGSTDSWGKLQF / CASRLDPTGHMNTEAFF (TCR)
alpha TRAV8-3 TRAJ24 CDR3: CAVGSTDSWGKLQF
beta TRBV19 TRBJ1-1 CDR3: CASRLDPTGHMNTEAFF
B39: TCR861 (TCR)
alpha TRAV13-1 TRAJ50 CDR3: CAASRGTSYDKVIF
beta TRBV29-1 TRBJ2-1 CDR3: CSVRSLYNEQFF
B40: …-1 (TCR)
alpha TRAV8-3 TRAJ24 CDR3: CAVGLTDSWGKLQF
beta TRBV19 TRBJ2-1 CDR3: CASSFSKNGNSYNEQFF
B41: TCR CAATDTGNQFYF / CASSQHGQGNQPQHF (TCR)
alpha TRAV13-1 TRAJ49 CDR3: CAATDTGNQFYF
beta TRBV7-8 TRBJ1-5 CDR3: CASSQHGQGNQPQHF
B42: TCR755 (TCR)
alpha TRAV12-3 TRAJ8 CDR3: CAMSETRFQKLVF
beta TRBV19 TRBJ2-7 CDR3: CASSSTGGNYEQYF
B43: TCR CAGRPNSGGSNYKLTF / CASSDQAAWAGYTF (TCR)
alpha TRAV35 TRAJ53 CDR3: CAGRPNSGGSNYKLTF
beta TRBV19 TRBJ1-2 CDR3: CASSDQAAWAGYTF
B44: TCR CAGRPNSGGSNYKLTF / CASSGQQALYGYTF (TCR)
alpha TRAV35 TRAJ53 CDR3: CAGRPNSGGSNYKLTF
beta TRBV19 TRBJ1-2 CDR3: CASSGQQALYGYTF
B45: TCR CATGHTGANSKLTF / CASSLQGTPNGNQPQHF (TCR)
alpha TRAV17 TRAJ56 CDR3: CATGHTGANSKLTF
beta TRBV19 TRBJ1-5 CDR3: CASSLQGTPNGNQPQHF
B46: TCR CAVSEKNTGFQKLVF / CASRKGLGDTDTQYF (TCR)
alpha TRAV8-6 TRAJ8 CDR3: CAVSEKNTGFQKLVF
beta TRBV6-1 TRBJ2-3 CDR3: CASRKGLGDTDTQYF
B47: …-1 (TCR)
alpha TRAV8-6 TRAJ24 CDR3: CAVSEDDSWGKLQF
beta TRBV29-1 TRBJ1-6 CDR3: CSVARDRNSPLHF
B48: TCR CILRDVLSNFGNEKLTF / CASSQASVSVDTQYF (TCR)
alpha TRAV26-2 TRAJ48 CDR3: CILRDVLSNFGNEKLTF
beta TRBV4-2 TRBJ2-3 CDR3: CASSQASVSVDTQYF
B49: TCR CAASRGTSYDKVIF / CSVRGLYNEQFF (TCR)
alpha TRAV13-1 TRAJ50 CDR3: CAASRGTSYDKVIF
beta TRBV29-1 TRBJ2-1 CDR3: CSVRGLYNEQFF
B50: TCR CAVNRADSWGKLQF / CASSIDKTGHSNQPQHF (TCR)
alpha TRAV12-2 TRAJ24 CDR3: CAVNRADSWGKLQF
beta TRBV19 TRBJ1-5 CDR3: CASSIDKTGHSNQPQHF
B51: TCR CIVRAGGTSYGKLTF / CAWSPLAGTGAPQPQHF (TCR)
alpha TRAV26-1 TRAJ52 CDR3: CIVRAGGTSYGKLTF
beta TRBV30 TRBJ1-5 CDR3: CAWSPLAGTGAPQPQHF
B52: TCR CAASRGTSYDKVIF / CSATGLYNEQFF (TCR)
alpha TRAV13-1 TRAJ50 CDR3: CAASRGTSYDKVIF
beta TRBV20-1 TRBJ2-1 CDR3: CSATGLYNEQFF
B53: TCR CAAVGMNGGAQKLVF / CASRSQGWGTEAFF (TCR)
alpha TRAV13-1 TRAJ54 CDR3: CAAVGMNGGAQKLVF
beta TRBV19 TRBJ1-1 CDR3: CASRSQGWGTEAFF
B54: TCR846 (TCR)
alpha TRAV8-6 TRAJ54 CDR3: CAVSESAQGAQKLVF
beta TRBV19 TRBJ2-3 CDR3: CASSRPGLNTDTQYF

Molecular target: T1, hemagglutinin (HA) of pandemic 2009 …
Test: activation reporter or marker

Binder | binding result
B1 | recognises
B2 | recognises

Molecular target: T2, hemagglutinin (HA) of pandemic 2009 …
Test: activation reporter or marker

Binder | binding result
B3 | no recognition
B4 | no recognition
B5 | no recognition
B6 | no recognition
B7 | no recognition
B8 | no recognition
B9 | no recognition
B10 | no recognition
B11 | no recognition
B12 | no recognition
B13 | no recognition
B14 | no recognition
B15 | no recognition
B16 | no recognition
B17 | no recognition
B18 | no recognition
B19 | no recognition
B20 | no recognition
B21 | no recognition
B22 | no recognition
B23 | no recognition
B24 | no recognition

Molecular target: T3, HA69 peptide on HLA …
Test: activation reporter or marker

Binder | binding result
B25 | recognises
B26 | recognises
B27 | recognises
B28 | recognises
B29 | recognises
B30 | recognises
B31 | recognises
B32 | recognises
B7 | no recognition
B33 | recognises
B34 | recognises
B35 | recognises
B1 | recognises
B36 | recognises
B37 | recognises
B38 | recognises
B39 | recognises

Binder | binding result
B40 | no recognition
B41 | recognises
B42 | recognises
B43 | recognises
B44 | recognises
B45 | recognises
B46 | recognises
B47 | no recognition
B2 | recognises
B48 | recognises
B49 | recognises
B50 | recognises
B51 | recognises
B52 | recognises
B53 | recognises
B54 | recognises
